# Experimental data as given in publication PMC9719863 (Molecular Metabolism, 2022).
# *1 amine or outer side, *2 acyl side, *3 side chain or, on linkers, in order; H or OH if unused. Where no end group is shown, it is not given here. Side-chain parts run from the residue outwards. The star is where a group is joined. C18 diacid = O=C(O)CCCCCCCCCCCCCCCCC(=O)*; γGlu = O=C(O)[C@H](CCC(=O)[*:2])N[*:1]; Palmitoyl = CCCCCCCCCCCCCCCC(=O)*; AEEA = NCCOCCOCC(=O)O
# T1: mGIPR (Mus musculus, UniProt Q0P543)
# T1 sequence (Q0P543 19-460): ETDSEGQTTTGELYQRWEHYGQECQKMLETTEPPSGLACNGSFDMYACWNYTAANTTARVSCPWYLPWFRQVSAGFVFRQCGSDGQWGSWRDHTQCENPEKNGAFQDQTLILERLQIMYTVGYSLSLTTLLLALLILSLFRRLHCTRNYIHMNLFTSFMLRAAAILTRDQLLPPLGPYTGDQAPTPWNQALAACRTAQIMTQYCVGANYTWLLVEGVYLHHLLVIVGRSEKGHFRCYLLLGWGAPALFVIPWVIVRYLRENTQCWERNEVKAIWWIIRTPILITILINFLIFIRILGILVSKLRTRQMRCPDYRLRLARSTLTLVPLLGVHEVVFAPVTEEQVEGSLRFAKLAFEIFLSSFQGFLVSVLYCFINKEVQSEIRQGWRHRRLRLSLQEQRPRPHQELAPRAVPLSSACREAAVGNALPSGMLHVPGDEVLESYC
# T2: hGIPR (Homo sapiens, UniProt P48546)
# T2 sequence (P48546 22-466): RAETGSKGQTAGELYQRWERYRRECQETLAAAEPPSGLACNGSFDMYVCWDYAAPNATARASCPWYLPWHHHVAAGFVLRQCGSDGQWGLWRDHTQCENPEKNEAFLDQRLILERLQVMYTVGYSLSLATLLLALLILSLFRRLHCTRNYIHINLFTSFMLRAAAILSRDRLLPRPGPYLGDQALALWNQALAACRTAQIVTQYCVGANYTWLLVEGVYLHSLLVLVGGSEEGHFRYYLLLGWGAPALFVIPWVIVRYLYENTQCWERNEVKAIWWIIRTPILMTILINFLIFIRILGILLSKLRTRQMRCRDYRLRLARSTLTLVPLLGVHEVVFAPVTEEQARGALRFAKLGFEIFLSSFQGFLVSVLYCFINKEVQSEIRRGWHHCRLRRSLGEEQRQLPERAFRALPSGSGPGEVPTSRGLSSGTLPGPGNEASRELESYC
# T3: human GIP receptor (human) (UniProt P48546)
# T3 sequence: T2 sequence (P48546 22-466)
# T4: mouse GIP receptor (mouse) (UniProt Q0P543)
# T4 sequence: T1 sequence (Q0P543 19-460)
# T5: mouse GIP receptor (mouse, UniProt Q0P543 19-460)
# T5 sequence: T1 sequence (Q0P543 19-460)
# T6: human GIP receptor (human, UniProt P48546 22-466)
# T6 sequence: T2 sequence (P48546 22-466)
# B1: [L14, R18, E21] hGIP(3-30)-K11 (γE-C16) (peptide)
# peptide: EGTFISDYK([γGlu-Palmitoyl])IALDKIRQQEFVNWLLAQK-NH2
# modifications: N-terminus assumed
# SMILES: CCCCCCCCCCCCCCCC(=O)N[C@@H](CCC(=O)NCCCC[C@H](NC(=O)[C@H](Cc1ccc(O)cc1)NC(=O)[C@H](CC(=O)O)NC(=O)[C@H](CO)NC(=O)[C@@H](NC(=O)[C@H](Cc1ccccc1)NC(=O)[C@@H](NC(=O)CNC(=O)[C@@H](N)CCC(=O)O)[C@@H](C)O)[C@@H](C)CC)C(=O)N[C@H](C(=O)N[C@@H](C)C(=O)N[C@@H](CC(C)C)C(=O)N[C@@H](CC(=O)O)C(=O)N[C@@H](CCCCN)C(=O)N[C@H](C(=O)N[C@@H](CCCNC(=N)N)C(=O)N[C@@H](CCC(N)=O)C(=O)N[C@@H](CCC(N)=O)C(=O)N[C@@H](CCC(=O)O)C(=O)N[C@@H](Cc1ccccc1)C(=O)N[C@H](C(=O)N[C@@H](CC(N)=O)C(=O)N[C@@H](Cc1c[nH]c2ccccc12)C(=O)N[C@@H](CC(C)C)C(=O)N[C@@H](CC(C)C)C(=O)N[C@@H](C)C(=O)N[C@@H](CCC(N)=O)C(=O)N[C@@H](CCCCN)C(N)=O)C(C)C)[C@@H](C)CC)[C@@H](C)CC)C(=O)O
# Tests used:
# [1] = target: T1, mGIPR; test: cAMP CRE-luciferase assay in BHK cells expressing GIPR; type: cell-based; conditions: agonist mode, without native ligand
# [2] = target: T2, hGIPR; test: as above; type: cell-based; conditions: agonist mode; for Agonism at the hGIPR (cAMP production by peptide alone): without native ligand
# [3] = target: T3, human GIP receptor (human)
# [4] = target: T4, mouse GIP receptor (mouse)
# [5] = target: T5, mouse GIP receptor; test: radioligand binding
# [6] = target: T6, human GIP receptor; test: radioligand binding
# [7] = target: T5, mouse GIP receptor; test: cell-based or functional assay
# [8] = target: T6, human GIP receptor; test: cell-based or functional assay
Molecule,IC50 [5],IC50 [6],maximal % inhibition of GIP-induced cAMP in BHK cells expressing mGIPR [7],maximal % inhibition of GIP-induced cAMP in BHK cells expressing hGIPR [8],further results
"CCCCCCCCCCCCCCCC(=O)N[C@@H](CCC(=O)NCCCC[C@H](NC(=O)[C@H](Cc1ccc(O)cc1)NC(=O)[C@H](CC(=O)O)NC(=O)[C@H](CO)NC(=O)[C@@H](NC(=O)[C@H](Cc1ccccc1)NC(=O)[C@@H](NC(=O)CNC(=O)[C@@H](N)CCC(=O)O)[C@@H](C)O)[C@@H](C)CC)C(=O)N[C@H](C(=O)N[C@@H](C)C(=O)N[C@@H](CC(C)C)C(=O)N[C@@H](CC(=O)O)C(=O)N[C@@H](CCCCN)C(=O)N[C@H](C(=O)N[C@@H](CCCNC(=N)N)C(=O)N[C@@H](CCC(N)=O)C(=O)N[C@@H](CCC(N)=O)C(=O)N[C@@H](CCC(=O)O)C(=O)N[C@@H](Cc1ccccc1)C(=O)N[C@H](C(=O)N[C@@H](CC(N)=O)C(=O)N[C@@H](Cc1c[nH]c2ccccc12)C(=O)N[C@@H](CC(C)C)C(=O)N[C@@H](CC(C)C)C(=O)N[C@@H](C)C(=O)N[C@@H](CCC(N)=O)C(=O)N[C@@H](CCCCN)C(N)=O)C(C)C)[C@@H](C)CC)[C@@H](C)CC)C(=O)O [Peptide 6, [L14, R18, E21] hGIP(3–30)-K11 (γE-C16)]",–,–,–,–,Agonism at the mGIPR (cAMP production by peptide alone) [1]: negligible cAMP production as agonists; Agonism at the hGIPR (cAMP production by peptide alone) [2]: negligible cAMP production as agonists
"CC[C@H](C)[C@H](NC(=O)[C@H](CO)NC(=O)[C@H](Cc1ccc(O)cc1)NC(=O)[C@H](CC(=O)O)NC(=O)[C@H](CO)NC(=O)[C@@H](NC(=O)[C@H](Cc1ccccc1)NC(=O)[C@@H](NC(=O)CNC(=O)[C@H](CCC(=O)O)NC(=O)[C@H](C)NC(=O)[C@@H](N)Cc1ccc(O)cc1)[C@@H](C)O)[C@@H](C)CC)C(=O)N[C@@H](C)C(=O)N[C@@H](CCSC)C(=O)N[C@@H](CC(=O)O)C(=O)N[C@@H](CCCCN)C(=O)N[C@H](C(=O)N[C@@H](CCCNC(=N)N)C(=O)N[C@@H](CCC(N)=O)C(=O)N[C@@H](CCC(N)=O)C(=O)N[C@@H](CC(=O)O)C(=O)N[C@@H](Cc1ccccc1)C(=O)N[C@H](C(=O)N[C@@H](CC(N)=O)C(=O)N[C@@H](Cc1c[nH]c2ccccc12)C(=O)N[C@@H](CC(C)C)C(=O)N[C@@H](CC(C)C)C(=O)N[C@@H](C)C(=O)N[C@@H](CCC(N)=O)C(=O)N[C@@H](CCCNC(=N)N)C(=O)NCC(=O)N[C@@H](CCCCN)C(=O)N[C@@H](CCCCN)C(=O)N[C@@H](CO)C(=O)N[C@@H](CC(=O)O)C(=O)N[C@@H](Cc1c[nH]c2ccccc12)C(=O)N[C@@H](CCCCN)C(=O)N[C@@H](Cc1c[nH]cn1)C(=O)N[C@@H](CC(N)=O)C(=O)N[C@H](C(=O)N[C@H](C(=O)N[C@@H](CCC(N)=O)C(=O)O)[C@@H](C)O)[C@@H](C)CC)C(C)C)[C@@H](C)CC [mGIP, reference compound]",–,–,–,–,"EC50 ([2]; cAMP EC50, hGIPR, native ligand, Table 1): 0.01 nM"
"EGTFISDYSIALDKIRQQEFVNWLLAQK-NH2 [Peptide 2, [L14, R18, E21] hGIP(3–30)]",–,–,–,–,Agonism at the mGIPR (cAMP production by peptide alone) [1]: no significant agonism; Agonism at the hGIPR (cAMP production by peptide alone) [2]: partial agonism
"FISDYSIALDKIRQQEFVNWLLAQKG [Peptide 4, [L14, R18, E21] hGIP(6–31)]",–,–,–,–,Agonism at the mGIPR (cAMP production by peptide alone) [1]: no significant agonism; Agonism at the hGIPR (cAMP production by peptide alone) [2]: partial agonism
"TFISDYSIALDKIRQQEFVNWLLAQKG [Peptide 3, [L14, R18, E21] hGIP(5–31)]",–,–,–,–,Agonism at the mGIPR (cAMP production by peptide alone) [1]: no significant agonism; Agonism at the hGIPR (cAMP production by peptide alone) [2]: partial agonism
"[Pla6, L14, R18, E21] hGIP(6-31) (peptide)",–,–,–,–,maximal % inhibition of GIP-induced cAMP in BHK cells expressing hGIPR [3]: 98%; maximal % inhibition of GIP-induced cAMP in BHK cells expressing mGIPR [4]: 99%
"[Pla6, L14, R18, E21] hGIP(6-31)-K11 (γE-C16) (peptide)",–,–,–,–,maximal % inhibition of GIP-induced cAMP in BHK cells expressing hGIPR [3]: 100%; maximal % inhibition of GIP-induced cAMP in BHK cells expressing mGIPR [4]: 99%
mouse GIP (from UniProt P48756 44-85) (ligand),–,–,–,–,EC50 of cAMP production (CRE-luciferase) in BHK cells expressing hGIPR [3]: 0.01 nM
B1,2.1 nM,0.36 nM,97%,100%,–
"Ac-TFISDYK([AEEA-AEEA-C18 diacid])IALDKIRQQEFVNWLLAQKG [[Nα-Ac, L14, R18, E21] hGIP(5-31)-K11(OEG2-C18-OH)]",8.7 nM,2.49 nM,100%,100%,–
"Ac-TFISDYK([γGlu-Palmitoyl])IALDKIRQQEFVNWLLAQKG [[Nα-Ac, L14, R18, E21] hGIP(5-31)-K11 (γE-C16)]",–,–,100%,100%,–
"Ac-TFISDK([γGlu-Palmitoyl])SIALDKIRQQEFVNWLLAQKG [[Nα-Ac, L14, R18, E21] hGIP(5-31)-K10 (γE-C16)]",1 nM,0.21 nM,100%,100%,–
"TFISDYSIALDKIRQQEFVNWLLAQKG [[L14, R18, E21] hGIP(5-31)]",18.7 nM,1.8 nM,93%,81%,–
"FISDYSIALDKIRQQEFVNWLLAQKG [[L14, R18, E21] hGIP(6-31)]",37.1 nM,6.45 nM,91%,83%,–
EGTFISDYSIAMDKIHQQDFVNWLLAQK-NH2 [hGIP(3-30) amide],–,1.55 nM,73%,81%,–
"Ac-TFISDYK(C18 diacid)IALDKIRQQEFVNWLLAQKG [[Nα-Ac, L14, R18, E21] hGIP(5-31)-K11 (-C18-OH)]",5.4 nM,0.9 nM,100%,100%,–
"Ac-TFISDYK([AEEA-AEEA-γGlu-C18 diacid])IALDKIRQQEFVNWLLAQKG [[Nα-Ac, L14, R18, E21] hGIP(5-31)-K11(OEG2-γE-C18-OH)]",24.8 nM,3.83 nM,100%,100%,–
